Results: article PMC4352895, “Jarid2 Methylation via the PRC2 Complex Regulates H3K27me3 Deposition during Cell Differentiation” (Molecular Cell, 2015)
pKd: −log10 of the molar value.

Target: ΔEed (Eed residues 77 to 441) (UniProt O75530)
Assay: ITC; ΔEed (residues 77 to 441) with methylated peptides; conditions in the Supplemental Experimental Procedures

Sequence of ΔEed (Eed residues 77 to 441) (O75530 77-441, stated change not applied): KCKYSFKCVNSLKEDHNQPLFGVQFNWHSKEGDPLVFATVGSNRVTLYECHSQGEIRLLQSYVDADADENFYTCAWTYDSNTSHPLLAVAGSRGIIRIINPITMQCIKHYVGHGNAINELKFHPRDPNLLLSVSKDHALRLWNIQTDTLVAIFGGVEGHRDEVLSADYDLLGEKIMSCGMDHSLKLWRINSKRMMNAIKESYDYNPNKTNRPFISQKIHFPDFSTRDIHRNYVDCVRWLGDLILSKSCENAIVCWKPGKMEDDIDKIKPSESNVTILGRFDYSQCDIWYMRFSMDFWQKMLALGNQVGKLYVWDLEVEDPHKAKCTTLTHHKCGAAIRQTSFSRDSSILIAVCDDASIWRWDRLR

Q: What does the source list for Jarid2-K116me3 peptide?
A: pKd: 5.52; fold affinity against the H3K27me3 peptide: 10 fold
